Measurements published in US10287340B2, “Anti-HIV domain antibodies and method of making and using same” (priority 2008, dated 2019).
“Also recorded” adds a separate entry of the source. Read-outs that look alike come from different tables or passages of the source.

Legend:
[1] = test system: Viruses pseudotyped with HIV-1 Envs; assay: Pseudovirus neutralization assay; type: cell-based; conditions: for neutralizing activity compared to m36: side by side in the same experiment
gp120Bal-CD4 [2] = assay: Binding ELISA to gp120Bal-CD4 (Example 3); parameters: species or system HIV-1
gp120Bal-CD4 [3] = assay: Competition ELISA on gp120Bal-CD4; type: binding, HIV-1
Method: (§1) Antigens were coated and blocked as described above. […] Mixtures were subsequently added to each well and incubated. Bound m36 was detected and the assay was developed as described above.

soluble CD4 (sCD4) = soluble CD4 (sCD4) (Homo sapiens, UniProt P01730); assay: ELISA binding to CD4 alone
gp140GXC-44 = assay: Competition ELISA on gp140GXC-44; type: binding, HIV-1; conditions: in the absence of CD4
Method: as §1

[4] = Size exclusion chromatography, oligomerization; conditions: Superdex75, PBS
BSA = BSA (Bos taurus, UniProt P02769); assay: Binding ELISA to BSA (unrelated antigen)
BSA, sequence (P02769 25-607): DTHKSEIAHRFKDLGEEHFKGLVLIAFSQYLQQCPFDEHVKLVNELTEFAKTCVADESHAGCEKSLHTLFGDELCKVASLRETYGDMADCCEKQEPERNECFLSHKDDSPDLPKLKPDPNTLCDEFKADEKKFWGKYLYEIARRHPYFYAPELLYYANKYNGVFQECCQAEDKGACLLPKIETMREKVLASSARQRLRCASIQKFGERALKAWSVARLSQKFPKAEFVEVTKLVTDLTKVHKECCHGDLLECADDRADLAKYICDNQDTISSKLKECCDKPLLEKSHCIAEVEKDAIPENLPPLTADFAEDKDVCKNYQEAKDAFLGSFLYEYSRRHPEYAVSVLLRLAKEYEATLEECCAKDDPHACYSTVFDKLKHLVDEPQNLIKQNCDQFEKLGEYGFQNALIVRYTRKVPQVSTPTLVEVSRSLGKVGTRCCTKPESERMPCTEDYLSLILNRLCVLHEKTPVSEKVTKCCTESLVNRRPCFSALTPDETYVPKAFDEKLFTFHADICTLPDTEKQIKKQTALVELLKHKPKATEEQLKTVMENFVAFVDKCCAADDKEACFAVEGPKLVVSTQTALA

[5] = test system: gp140 from a clade C isolate GXC-44 (gp140GXC-44); assay: Binding ELISA to gp140GXC-44; parameters: species or system HIV-1
[6] = Storage of VH protein solutions at 4° C., precipitation; type: physicochemical; conditions: stored at 4° C. for 4 weeks
gp120Bal = assay: ELISA binding to gp120 alone; parameters: species or system HIV-1; conditions: without CD4
[7] = target: serum albumin from human (HSA) (Homo sapiens, UniProt P02768); assay: Binding of m36SAbp to human serum albumin; conditions: data not shown
[8] = target: serum albumin from mouse (MSA) (Mus musculus, UniProt P07724); assay: Binding of m36SAbp to mouse serum albumin; conditions: data not shown
serum albumin from mouse (MSA), sequence (P07724 25-608): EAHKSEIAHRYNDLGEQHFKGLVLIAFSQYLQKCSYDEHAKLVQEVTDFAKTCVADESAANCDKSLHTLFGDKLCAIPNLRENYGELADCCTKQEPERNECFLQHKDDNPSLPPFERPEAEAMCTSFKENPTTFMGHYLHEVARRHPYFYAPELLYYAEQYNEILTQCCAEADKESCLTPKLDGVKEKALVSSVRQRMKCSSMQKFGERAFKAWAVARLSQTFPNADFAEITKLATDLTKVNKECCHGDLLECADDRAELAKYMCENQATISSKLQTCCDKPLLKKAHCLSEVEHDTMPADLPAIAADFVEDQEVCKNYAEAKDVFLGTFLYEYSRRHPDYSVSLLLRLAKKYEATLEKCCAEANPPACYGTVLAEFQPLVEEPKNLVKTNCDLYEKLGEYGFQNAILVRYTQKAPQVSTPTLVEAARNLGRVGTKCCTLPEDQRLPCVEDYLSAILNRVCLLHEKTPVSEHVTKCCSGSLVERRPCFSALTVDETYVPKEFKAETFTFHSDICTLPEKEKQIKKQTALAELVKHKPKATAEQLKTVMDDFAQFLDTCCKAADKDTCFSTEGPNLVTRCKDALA

[9] = target: serum albumin from bovine (BSA) (Bos taurus, UniProt P02769); assay: Binding of m36SAbp to bovine serum albumin; conditions: data not shown
serum albumin from bovine (BSA), sequence (P02769 25-607): as the sequence (P02769 25-607) above

tethered gp140 from 89.6, sequence (Q73372 32-496 limits assumed): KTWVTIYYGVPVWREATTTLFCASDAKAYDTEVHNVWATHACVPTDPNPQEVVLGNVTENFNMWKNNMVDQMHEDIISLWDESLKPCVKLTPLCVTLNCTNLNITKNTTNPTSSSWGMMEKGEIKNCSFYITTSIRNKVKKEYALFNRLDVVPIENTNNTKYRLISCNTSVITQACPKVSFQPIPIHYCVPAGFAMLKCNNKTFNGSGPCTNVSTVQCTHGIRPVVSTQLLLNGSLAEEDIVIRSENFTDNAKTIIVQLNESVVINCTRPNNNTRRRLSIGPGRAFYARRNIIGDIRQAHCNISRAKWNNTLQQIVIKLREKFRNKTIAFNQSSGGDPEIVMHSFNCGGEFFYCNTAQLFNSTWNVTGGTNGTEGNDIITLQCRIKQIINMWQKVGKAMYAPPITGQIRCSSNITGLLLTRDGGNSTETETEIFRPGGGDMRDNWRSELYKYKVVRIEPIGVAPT

B1: m36h3Fc: m36 joined with human IgG1 Fc by a human IgG3 hinge (protein)
chain: QVQLVQSGGGLVQPGGSLRLSCAASAFDFSDYEMSWVRQAPGKGLEWIGEINDSGNTIYNPSLKSRVTISRDNSKNTLYLQMNTLRAEDTAIYYCAIYGGNSGGEYWGQGTLVTVSSELKTPLGDTTHTCPRCPEPKSCDTPPPCPRCP
modifications: left off: a dimerising Fc or GST
notes: m36 joined with human IgG1 Fc by a human IgG3 hinge
In the case of B1, the “number of isolates neutralized” value [1] is reported as “five isolates”, the “potency against 89.6 compared to m36” value [1] is reported as “higher than that of m36” and the “potency compared to m36h1Fc” value [1] is reported as “did not exhibit higher potency”. The EC50 (gp120Bal-CD4 [2]) was about 0.5 nM.

B2: m36: human VH domain antibody (dAb) on m0 scaffold targeting CD4i epitope of HIV-1 gp120; CDR3 AIYGGNSGGEY (protein)
VHH: QVQLVQSGGGLVQPGGSLRLSCAASAFDFSDYEMSWVRQAPGKGLEWIGEINDSGNTIYNPSLKSRVTISRDNSKNTLYLQMNTLRAEDTAIYYCAIYGGNSGGEYWGQGTLVTVSS
For B2, the “competition with CD4bs antibody m14 for binding to gp120Bal-CD4” value (gp120Bal-CD4 [3]) was “not with the CD4 binding site (CD4bs) antibody m14”, the “competition with CD4i antibody m16 for binding to gp120Bal-CD4” value (gp120Bal-CD4 [3]) was “competed” and the “binding to tethered gp140 from 89.6” value (tethered gp140 from 89.6; after gp140 bound to CD4) was “enhanced”. For the same molecule, the “binding to tethered gp140 from 89.6” value (tethered gp140 from 89.6; without complexation with CD4) was “bound”, the “binding to CD4 alone” value (soluble CD4 (sCD4)) was “not to gp120Bal or to soluble CD4 (sCD4) and BSA” and the “binding to CD4 alone” value (soluble CD4 (sCD4); listed as b5) was “neither gp120 nor CD4 alone”. For the same molecule, the “inhibition of the isolate from clade C” value ([1]; at 667 nM) was 100%, the “isolates completely (100%) inhibited” value ([1]; at 667 nM, 7 clade B isolates in panel) was 4 out of 7 and the “neutralization of the clade E isolate GXE” value ([1]; at concentrations up to 667 nM) was “did not neutralize”. For the same molecule, the “potency compared to peptide C34” value ([1]; average over panel) was “on average more potent”, the “neutralization potency compared to scFv m9” value ([1]; average, six clade B, one clade C, one clade A isolate, IC50s on molar basis) was “two-fold higher” and the “cross-reactivity against HIV-1 isolates” value ([1]; clade A, B, C, and D) was “cross-reactive”. The “neutralization activity compared to scFv m9” value ([1]; clade B isolate 89.6 and clade-D isolate Z2Z6) was “lower neutralization activity”, the IC90 ([1]; clade C isolate GXC-44 and clade B isolate NL4-3) was “very low IC90s” and the “competition with m14 for binding to gp140GXC-44” value (gp140GXC-44) was “competed”. The oligomeric state [4] was “monomeric”, the “binding to BSA” value (BSA) was “not to gp120Bal or to soluble CD4 (sCD4) and BSA” and the “binding to gp140GXC-44” value ([5]; gp140GXC-44 alone) was “did bind although weaker”. The “binding to gp140GXC-44” value ([5]; in the presence of sCD4) was “bound”, the precipitation on storage [6] was “no precipitation” and the “binding to gp120 alone” value (gp120Bal) was “not to gp120Bal or to soluble CD4 (sCD4) and BSA”.

B3: m36CH3: m36 fused to human IgG1 CH3 domain without linker, MW~60 kDa (protein)
VHH: QVQLVQSGGGLVQPGGSLRLSCAASAFDFSDYEMSWVRQAPGKGLEWIGEINDSGNTIYNPSLKSRVTISRDNSKNTLYLQMNTLRAEDTAIYYCAIYGGNSGGEYWGQGTLVTVSS
modifications: left off: a dimerising Fc or GST; small tags and cut ends
notes: m36 fused to human IgG1 CH3 domain without linker, MW~60 kDa
In the case of B3, the “isolates with loss of neutralization compared to m36” value ([1]; 10 isolates) is reported as 7 of 10, the “IC50s compared to the corresponding ones for m36” value ([1]; IIIB, 89.6 and NL4-3) is reported as “significantly higher” and the “neutralizing activity compared to m36” value [1] is reported as “significantly weaker”. For the same molecule, the “binding to gp120Bal-CD4 compared to m36” value (gp120Bal-CD4 [2]) was “comparable to that of m36”.

B4: m36b0Fc: m36 fused to human IgG1 Fc without peptide linker, MW~80 kDa (protein)
VHH: QVQLVQSGGGLVQPGGSLRLSCAASAFDFSDYEMSWVRQAPGKGLEWIGEINDSGNTIYNPSLKSRVTISRDNSKNTLYLQMNTLRAEDTAIYYCAIYGGNSGGEYWGQGTLVTVSS
modifications: left off: a dimerising Fc or GST
notes: m36 fused to human IgG1 Fc without peptide linker, MW~80 kDa
In the case of B4, the “inhibitory activity against 89.6 and NL4-3” value [1] is reported as “decreased inhibitory activity”, the “neutralization of TCLA isolate IIIB” value [1] is reported as “lost neutralization” and the “binding to gp120Bal-CD4 compared to m36” value (gp120Bal-CD4 [2]) is reported as “bound slightly better”.

B5: m36SAbp: m36 fused to a serum albumin binding peptide (SAbp), MW~18 kDa (protein)
chain: QVQLVQSGGGLVQPGGSLRLSCAASAFDFSDYEMSWVRQAPGKGLEWIGEINDSGNTIYNPSLKSRVTISRDNSKNTLYLQMNTLRAEDTAIYYCAIYGGNSGGEYWGQGTLVTVSSQRHPEDICLPRWGCLWGDDD
modifications: left off: small tags and cut ends
In the case of B5, the “binding to serum albumin” value [7] is reported as “binds”, the “binding to serum albumin” value [8] is reported as “binds” and the “neutralizing activity compared to m36” value [1] is reported as “slight but not significant decrease; also recorded: about the same neutralizing activity”. The “binding to gp120Bal-CD4 compared to m36” value (gp120Bal-CD4 [2]) was “comparable to that of m36” and the “binding to serum albumin” value [9] was “binds”.

B6: m36c2Fc: m36 joined with human IgG1 Fc by a camel IgG2 hinge (protein)
chain: QVQLVQSGGGLVQPGGSLRLSCAASAFDFSDYEMSWVRQAPGKGLEWIGEINDSGNTIYNPSLKSRVTISRDNSKNTLYLQMNTLRAEDTAIYYCAIYGGNSGGEYWGQGTLVTVSSEPKIPQPQPKPQPQPQPQPKPQPKPEPECTCPKCP
modifications: left off: a dimerising Fc or GST
notes: m36 joined with human IgG1 Fc by a camel IgG2 hinge
With B6 the “number of isolates neutralized” value [1] was “five isolates”, the “potency against 89.6 compared to m36” value [1] was “higher than that of m36” and the “potency compared to m36h1Fc” value [1] was “did not exhibit higher potency”. For the same molecule, the EC50 (gp120Bal-CD4 [2]) was about 0.5 nM.
